Results reported in paper PMC7015241, “Myopalladin promotes muscle growth through modulation of the serum response factor pathway” (Journal of Cachexia, Sarcopenia and Muscle, 2019).

Biological target: Filamentous actin (F-actin) (rabbit, UniProt P68135 1-377)
Test: co-sedimentation; 1–30 μM polymerized actin incubated with 10 μM MYPN Ig3, Ig4 or Ig3–4 domain for 1 h in 100 μL, 150 000×g for 30 min; SDS-PAGE of supernatants and pellets, densitometry; F-buffer (Tris, KCl, MgCl2, DTT, pH 8.0)
Conditions: both partners purified

B1: Myopalladin (MYPN) Ig3-4 tandem domain (domain or fragment)
chain: PIFDKRLKHFRVTEGSPVTFTCKIVGIPVPKVYWFKDGKQISKRNEHCKMRREGDGTCSLHIESTTSDDDGNYTIMAANPQGRISCSGHLMVQSLPIRSRLTSAGQSHRGRSRVQERDKEPLQERFFRPHFLQAPGDMVAHEGRLCRLDCKVSGLPPPELTWLLNGQPVLPDASHKMLVRETGVHSLLIDPLTQRDAGTYKCIATNKTGQNSFSLELS
Work on B1 yielded a Kd of 4.6 µM.
